{"source": "patent US6495317B1", "about": "“DNA encodingmannose 6-phosphate reductase and recombinants produced therefrom” (Board of Trustees of Michigan State University, priority 1996, dated 2002)", "molecules": {"B1": {"name": "Recombinant M6PR: mannose 6-phosphate reductase purified from IPTG-induced E. coli clone D carrying celery cDNA (SEQ ID NO:2) (protein)", "chain": "MAITLNSGFKMPVLGLGVWRMDRNEIKNLLLSAINLGYRHFDCAADYKNELEVGEAFKEAFDTDLVKREDLFITTKLWNSDHGHVIEACKNSLKKLQLEYLDLYLIHFPMASKHSGIGTTRSILDDEGVWEVDATISLEATWHEMEKLVEMGLVRSIGISNYDVYLTRDILSYSKIKPAVNQIETHPYFQRDSLIKFCQKYGIAITAHTPLGGALANTERFGSVSCLDDPVLKKLSDKHNKSPAQIVLRWGVQRNTIVIPKSSKTKRLEENINIFDFELSKEDMELIKTMERNQRSNTPAKAWGIDVYA"}}, "key": {"[1]": {"system": "mannose 6-phosphate reductase (M6PR)", "test": "Kinetic characterization of purified M6PR (mannose 6-phosphate and NADPH kinetics)", "format": "biochemical, celery (Apium graveolens)", "conditions": "30° C., 33 mM Tris-HCl pH 7.5, 3 mM DTT; for Km: read-out: km", "source_text": "Subsequent purification steps were essentially as described in Loescher et al., Plant Physiol. 98:1396-1402 (1992) except for Reactive Yellow 86 (RY86) chromatography. Here the active fraction from the gel filtration step was split in two, and each fraction run separately on the RY86 column as described in Loescher et al., Plant Physiol. 98:1396-1402 (1992). The active fractions were pooled and either diluted by the addition of 0.5 v of column buffer or desalted using centrifugal concentrating devices (30 kD cut-off membranes) and washed with 2 volumes of column buffer. This step was performed to dilute or remove NADPH. The sample was then loaded back onto the RY86 column and activity eluted in a linear gradient between 0 and 0.2 mM NADPH in column buffer. The purified M6PR was desalted and concentrated using centrifugal filtration and was either used immediately for kinetic characterization or stored at −21° C. after adding glycerol (1:1, v:v)."}, "[2]": {"system": "mannose 6-phosphate reductase (M6PR)", "test": "M6PR activity assay (NADPH oxidation), specific activity of purified enzyme", "format": "biochemical, celery (Apium graveolens)", "description": "Three putative M6PR and one non-positive clone (as determined by antibody screening) were tested for M6PR activity. Duplicate 10 ml cultures of each clone were grown in LB+ampicillin (amp; […]). Once an average OD600 of 0.5 had been attained one culture of each pair was induced by the addition of isopropyl-β-D-thiogalactopyranoside (IPTG; final concentration 10 mM). […] Cultures were maintained at 30° C. for a further 3 h and were harvested at an average OD600 of 1.29±0.02. Cells were pelleted by centrifugation (2000×g for 5 min) and washed twice by resuspending the pellets in 5 ml Tris (100 mM, pH 7.5) containing […], with a centrifugation step between each wash. After the final wash pelleted cells were maintained on ice. Just prior to disruption the cells were resuspended in 4 ml of extraction buffer (100 mM Tris-HCl pH 7.5, […], 10 mM DTT and 0.1% Triton X-100) and transferred to blood dilution vials (American Scientific Products, McGaw Park, Ill.). Cells were ruptured by suspending the vial containing the cells 0.5 cm above the cuphorn probe of a Heat Systems W-385 sonicator (Misonics Farmingdale, N.Y.) and subjecting them to 2 minutes sonication at full power. Coolant was circulated around the vial to maintain the temperature at approximately 4° C. After sonication, 1.5 ml aliquots of the homogenate were centrifuged at 13,000×g for 5 minutes at 4° C. […]"}}, "note": "Read-outs that look alike come from different tables or passages of the source.", "data": [{"molecule": "B1", "values": [{"measurement": "Vmax; NADPH", "setting": "[1]; 9 NADPH concentrations 1-50 μM, mannose 6-phosphate 12 mM", "value": "6.0 ± 2.3 (2;3) μmol mg prot^−1 min^−1"}, {"measurement": "Km", "setting": "[1]; 9 NADPH concentrations 1-50 μM, mannose 6-phosphate 12 mM, NADPH", "value": "0.0062 ± 0.0024", "unit": "mM"}, {"measurement": "Vmax; mannose 6-P", "setting": "[1]; 12 M6P concentrations 1-50 mM, saturating NADPH 200 μM", "value": "8.0 ± 1.9 (4;6) μmol mg prot^−1 min^−1"}, {"measurement": "Km", "setting": "[1]; 12 M6P concentrations 1-50 mM, saturating NADPH 200 μM, mannose 6-P", "value": "10.1 ± 1.4", "unit": "mM"}, {"measurement": "average specific activity of the purified enzyme", "setting": "[2]; average of three preparations, 1 mU = 1 nmol NADPH oxidized per minute", "value": "3926±833", "unit": "mU/mg protein"}, {"measurement": "specific activity of the purified enzyme", "setting": "[2]; final two preparations", "value": "4441±13", "unit": "mU/mg"}]}]}
